Data set [1] concerns the molecule itself. Put plainly: self-assembly of trimers; negative-stain EM of E. coli pellet.
Data set [2] concerns the molecule itself. The data set can be described thus: self-assembly of fusion trimers; negative-stain EM.
Data set [3] concerns the molecule itself. The data set can be described thus: sizes of crystals observed in the pellet; negative-stain EM (self-assembly).
Data set [4] concerns the molecule itself. The data set can be described thus: self-assembly of tetramers; negative-stain EM of E. coli pellet.
Data set [5] deals with the molecule itself. The data set can be described thus: self-assembly of fusion trimers; negative-stain TEM of E. coli pellet. How it is done:
(§1) Synthetic genes of each fusion were obtained and protein was expressed in Escherichia coli cells using a standard T7 based expression vector (Table 2). The protein expression was verified by sodium dodecyl sulfate polyacrylamide gel electrophoresis (SDS-PAGE) after separation of the soluble and insoluble cell portions. Samples of observed protein in the cellular pellets were analyzed for array formation by negative-stain Transmission Electron Microscopy (TEM). […] It is worth noting that 5/7 of the remaining fusions either shared a similar sequence and unknown but potentially similar structures (2 unpublished binding proteins) or were either the same molecular weight or much larger than the p3Z-42 monomer protein (3 proteins between ˜25-35 kDa).

Data set [6] deals with the molecule itself. Put plainly: self-assembly of fusion trimers; negative-stain EM of E. coli pellet. How it is done:
as §1
On the basis of these initial hits, the general properties of the proteins that crystallized, specifically molecular weight, were evaluated. 16 further fusions were identified based either on smaller molecular weight sizes (13 proteins between 9 and 13 kDa) or other important targets close to this molecular weight range (3 proteins between 14 and 17 kDa). These second screen fusions were genetically fused and checked for array formation as before. […]

Data set [7] deals with the molecule itself. Put plainly: self-assembly of trimers; cell-free expression, negative-stain EM. How it is done:
(A) Design p3Z_42 expressed using an in vitro expression kit. This negative-stain micrograph was made 4 hours after adding pure plasmid DNA of p3Z_42 to the kit components without purification. A Fourier transform is shown from a crystal in the micrograph showing the same P 3 2 1 lattice as visualized in p3Z_42 E. coli expression. (B) Fast dilution re-folded p4Z_9 protein. Large arrays form analogous to those seen from E. coli expressed protein. A Fourier transform is shown highlighting the square lattice. (C) Dialysis re-folded p4Z_9 protein. Large fibrous structures form with the same square array pattern as in E. coli expressed proteins. Fourier transform is shown highlighting the square repeat pattern. (D) Purified and concentrated protein from p6_9H soluble fractions. Arrays were not visualized at this point. […] (E) p6_9H array formation from material as in (d). These arrays formed after further concentration of protein as in (d) and heat application in a water bath. […] Fourier transform is shown with the same P 6 arrangement seen in the pellet sample. Scale bars=50 nm.

Substitutions are numbered along the chain they refer to. Names and notes keep the numbering of the source.

B1: p3Z_11 (designed binder)
chain: MEEVVLITVPSESVARIIAKALVASRLAACVNIVPGLTSIYRWQGSVVEDQELLLLVKTTTHAFPKLKHTVKIIHPYTVPEIVALPIAEGNREYLDWLRENTGLE
notes: Designed self-assembling protein; Expressed from pet29b in E. coli; also called design p3Z_11
With B1, the binding result in data set [1] is “binds”.

B2: p3Z-42 TDRD2 fusion (designed binder)
chain: MGSRSLQLDKLVNEMTQHYENSVPEDLTVHVGDIVAAPLPTNGSWYRARVLGTLENGNLDLYFVDFGDNGDCPLKDLRALRSDFLSLPFQAIECSGSGSGGMHNNRLQLSRLERVYQSEQAEKLLLAGVMLRDPARFDLRGSLTHGRDVEIDTNVIIEGNVSLGNRVKIGTGCVIKNSAIGDDCEISPYTVVEDAVLAAACTIGPFARLRPGAVLLEGAHVGNFVEMKKAVLGKGSKAGHLTYLGDAAIGDNVNIGAGTITCNYDGANKFTTIIGDDVFVGSDTQLVAPVSVGKGATIAAGTTVTRNVGANALAISRVPQTQKEGWRRPVKKK
For the protein B2, the binding result in data set [2] is reported as “binds”.

B3: p6_9 (designed binder, not shown: small tags and cut ends)
chain: MGFQGPLGSHMTISPKEKEKIAIHEAGHDLMGLVSDDDDKVHKISIIPRGMALGVTQQLPIEDKHIYDKKDLYNKILVLLGGRAAEEVFFGKDGITTGAENDLQRATDLAYRMVSMWGMSDKVGPIAIRRVANPFLGGMTTAVDTSPDLLREIDEEVKRIITEQYEKAKAIVEEYKLPLKFVVAALLESETILCSLFAEVFKTFGIELKDKCKKEELFDKDRKSEENKELKSEEVKEEVV
notes: Alpha helical hexamer (C6), layer group P 6; Carries A29D from gene synthesis; also called Original Design p6_9 (Control); precursor to p6_9H
For B3, the binding result in data set [3] is listed as “binds”.

B4: p6_9 L193T, A198V, S189K, cut 6xHis (designed binder)
chain: B3 chain with S189K, L193T, A198V
As to B4, the binding result in data set [3] is on record as “binds”.

B5: p6_9 L193T, A198V (designed binder, not shown: small tags and cut ends)
chain: B3 chain with L193T, A198V
Consider B5, for which the binding result in data set [3] is “binds”.

B6: p6_9 E188H, D29A (designed binder, not shown: small tags and cut ends)
chain: B3 chain with D29A, E188H
notes: p6_9H with the gene-synthesis mutation A29D reverted
On to B6, for which the binding result in data set [3] is recorded as “binds”.

B7: p6_9 T203V (designed binder, not shown: small tags and cut ends)
chain: B3 chain with T203V
As to B7, the binding result in data set [3] is “binds”.

B8: p6_9 L193T, S189K (designed binder, not shown: small tags and cut ends)
chain: B3 chain with S189K, L193T
Turning to B8, the binding result in data set [3] is listed as “binds”.

B9: p6_9 A184S (designed binder, not shown: small tags and cut ends)
chain: B3 chain with A184S
Regarding B9, the binding result in data set [3] is recorded as “binds”.

B10: p6_9H (designed binder, not shown: small tags and cut ends)
chain: B3 chain with E188H
notes: Hexamer (C6), layer group P 6; also called E188H (p6_9H)
In the case of B10, the binding result in data set [3] is “binds”.

B11: p6_9 E188R (designed binder, not shown: small tags and cut ends)
chain: B3 chain with E188R
Turning to B11, the binding result in data set [3] is recorded as “binds”.

B12: p6_9HM (designed binder, not shown: small tags and cut ends)
chain: B3 chain with E188H, V200M
notes: p6_9H (which already carries E188H) with V200M; also called E188H, V200M (p6_9HM)
As for B12, the binding result in data set [3] was “binds”.

B13: p6_9 E199L (designed binder, not shown: small tags and cut ends)
chain: B3 chain with E199L
Consider B13, for which the binding result in data set [3] is “binds”.

B14: p6_9 L193T (designed binder, not shown: small tags and cut ends)
chain: B3 chain with L193T
With B14, in data set [3], the binding result is given as “binds”.

B15: p6_9 E188H, cut 6xHis (designed binder)
chain: B3 chain with E188H
notes: p6_9H with the 6xHis tag removed
Take B15: the binding result in data set [3] is recorded as “binds”.

B16: p6_9 E188H, F218Y (designed binder, not shown: small tags and cut ends)
chain: B3 chain with E188H, F218Y
notes: p6_9H (which already carries E188H) with F218Y
Consider B16, for which, in data set [3], the binding result is reported as “binds”.

B17: p6_9 L193T, A198V, S189K (designed binder, not shown: small tags and cut ends)
chain: B3 chain with S189K, L193T, A198V
For B17, in data set [3], the binding result is recorded as “binds”.

B18: p6_9 E188H, L193T, A198V (designed binder, not shown: small tags and cut ends)
chain: B3 chain with E188H, L193T, A198V
notes: p6_9H (which already carries E188H) with L193T and A198V
With B18, the binding result in data set [3] was “binds”.

B19: p4Z_9 (designed binder)
chain: MEAVRAYELQLELQQIRTLRQSLELKAKELEYAAGIITSLKSERRIYRAFSDLLVEITKLEAIEHIARSIIVYVREIAKLAKRETEIMEELSKLRAPLSLE
notes: Designed self-assembling protein; tetramer (C4) that packs into a P 4 21 2 lattice; also called design p4Z_9
Turning to B19, the binding result in data set [4] is on record as “binds”.

B20: p3Z-42 Ferrodoxin fusion (designed binder)
chain: MLTVEVEVKITADDENKAEEIVKRVIDEVEREVQKQYPNATITRTLTRDDGTVELRIKVKADTEEKAKSIIKLIEERIEEELRKRDPNATITRTVRTEVGSSWSGSGSGGMHNNRLQLSRLERVYQSEQAEKLLLAGVMLRDPARFDLRGSLTHGRDVEIDTNVIIEGNVSLGNRVKIGTGCVIKNSAIGDDCEISPYTVVEDAVLAAACTIGPFARLRPGAVLLEGAHVGNFVEMKKAVLGKGSKAGHLTYLGDAAIGDNVNIGAGTITCNYDGANKFTTIIGDDVFVGSDTQLVAPVSVGKGATIAAGTTVTRNVGANALAISRVPQTQKEGWRRPVKKK
Regarding B20, the binding result in data set [5] is reported as “binds”.

B21: p3Z-42 Human Glutaredoxin fusion (designed binder)
chain: MGAGTAQEFVNCKIQPGKVVVFIKPTCPYCRRAQEILSQLPIKQGLLEFVDITATNHTNEIQDYLQQLTGARTVPRVFIGKDCIGGCSDLVSLQQSGELLTRLKQIGALQGSGSGGMHNNRLQLSRLERVYQSEQAEKLLLAGVMLRDPARFDLRGSLTHGRDVEIDTNVIIEGNVSLGNRVKIGTGCVIKNSAIGDDCEISPYTVVEDAVLAAACTIGPFARLRPGAVLLEGAHVGNFVEMKKAVLGKGSKAGHLTYLGDAAIGDNVNIGAGTITCNYDGANKFTTIIGDDVFVGSDTQLVAPVSVGKGATIAAGTTVTRNVGANALAISRVPQTQKEGWRRPVKKK
Take B21: the binding result in data set [6] was “binds”.

B22: p3Z_42 (designed binder)
chain: MHNNRLQLSRLERVYQSEQAEKLLLAGVMLRDPARFDLRGSLTHGRDVEIDTNVIIEGNVSLGNRVKIGTGCVIKNSAIGDDCEISPYTVVEDAVLAAACTIGPFARLRPGAVLLEGAHVGNFVEMKKAVLGKGSKAGHLTYLGDAAIGDNVNIGAGTITCNYDGANKFTTIIGDDVFVGSDTQLVAPVSVGKGATIAAGTTVTRNVGANALAISRVPQTQKEGWRRPVKKKLE
notes: Designed self-assembling protein; beta-helix trimer (C3) that packs into a P 3 2 1 lattice; Expressed from pet29b in E. coli or with a cell-free kit; also called design p3Z_42
As to B22, in data set [7], the binding result is “binds”.

B23: p6_9H_KDKCKXX (designed binder)
chain: MGFQGPLGSHMTISPKEKEKIAIHEAGHDLMGLVSDDDDKVHKISIIPRGMALGVTQQLPIEDKHIYDKKDLYNKILVLLGGRAAEEVFFGKDGITTGAENDLQRATDLAYRMVSMWGMSDKVGPIAIRRVANPFLGGMTTAVDTSPDLLREIDEEVKRIITEQYEKAKAIVEEYKLPLKFVVAALLHSETILCSLFAEVFKTFGIELKDKCK
notes: p6_9H with 33 C-terminal residues (including 6xHis) removed
For the protein B23, in data set [3], the binding result is listed as “binds”.

B24: p3Z-42 Human Acylphosphatase fusion (designed binder)
chain: MAEGNTLISVDYEIFGKVQGVFFRKHTQAEGKKLGLVGWVQNTDRGTVQGQLQGPISKVRHMQEWLETRGSPKSHIDKANFNNEKVILKLDYSDFQIVKGSGSGSGGMHNNRLQLSRLERVYQSEQAEKLLLAGVMLRDPARFDLRGSLTHGRDVEIDTNVIIEGNVSLGNRVKIGTGCVIKNSAIGDDCEISPYTVVEDAVLAAACTIGPFARLRPGAVLLEGAHVGNFVEMKKAVLGKGSKAGHLTYLGDAAIGDNVNIGAGTITCNYDGANKFTTIIGDDVFVGSDTQLVAPVSVGKGATIAAGTTVTRNVGANALAISRVPQTQKEGWRRPVKKK
Consider B24, for which the binding result in data set [6] is recorded as “binds”.
